The source of these data is patent US20240262906A1 (WELLMARKER BIO, published 2024).

The assay has as its target T1, IGSF1 overexpressed on cells (NCI-H292 IGSF1 O/E; HEK293E IGSF1 O/E) (human, UniProt Q8N6C5 581-1336).
T1 construct: Membrane protein expressed from a commercial vector (OriGene RC209621); also called IGSF1 antigen in cells
T1 sequence: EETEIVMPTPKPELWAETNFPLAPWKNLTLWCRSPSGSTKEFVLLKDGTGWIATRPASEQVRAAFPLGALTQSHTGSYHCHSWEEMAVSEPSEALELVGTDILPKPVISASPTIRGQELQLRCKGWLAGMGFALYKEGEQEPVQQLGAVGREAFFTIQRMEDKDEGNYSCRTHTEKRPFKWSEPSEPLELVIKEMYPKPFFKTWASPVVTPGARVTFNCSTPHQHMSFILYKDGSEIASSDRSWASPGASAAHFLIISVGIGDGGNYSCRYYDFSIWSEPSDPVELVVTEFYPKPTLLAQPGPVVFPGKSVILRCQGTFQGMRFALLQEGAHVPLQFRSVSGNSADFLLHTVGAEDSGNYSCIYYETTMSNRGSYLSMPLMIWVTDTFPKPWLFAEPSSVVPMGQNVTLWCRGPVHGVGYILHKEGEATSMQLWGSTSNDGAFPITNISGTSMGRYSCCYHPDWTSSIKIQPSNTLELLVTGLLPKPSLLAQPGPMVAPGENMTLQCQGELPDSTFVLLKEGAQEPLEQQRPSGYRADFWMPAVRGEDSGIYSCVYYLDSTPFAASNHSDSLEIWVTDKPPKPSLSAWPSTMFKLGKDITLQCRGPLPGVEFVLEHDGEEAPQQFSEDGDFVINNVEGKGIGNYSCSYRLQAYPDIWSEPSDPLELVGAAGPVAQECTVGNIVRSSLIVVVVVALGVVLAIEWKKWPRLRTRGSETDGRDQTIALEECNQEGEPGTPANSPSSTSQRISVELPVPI
Briefly: flow cytometry on NCI-H292 IGSF1 O/E cells, FITC anti-human IgG detection. The method, then: Specifically, the medium of NCI-H292 IGSF1 O/E cells and NCI-H292 MOCK cells was removed, washed once with PBS, and then treated with 2 ml of 0.25% trypsin-EDTA, and the cells were isolated. The isolated cells were diluted with 8 ml of PBS (hereinafter referred to as FACS buffer) containing 2% FBS and 0.05% sodium azide, and then the supernatant was removed by centrifugation at 1,200 rpm for 1 minute. Then, the cells were resuspended in FACS buffer to 1×10⁵ cells/ml. Thereafter, 1 ml of each was dispensed in a FACS tube, and the supernatant was removed by centrifugation at 1,200 rpm for 1 minute.
After the reaction was completed, 1 ml of FACS buffer was added to each tube, and the supernatant was removed by centrifugation at 1,200 rpm for 1 minute. This process was performed a total of two times. […]
Finally, after removal of the supernatant, the remaining pellet was resuspended in 200 μl of FACS buffer and analyzed by FACS. For FACS analysis, FITC fluorescence value labeled in each cell was measured using a BD LSRFortessa™ flow cytometer, and then the results were analyzed using a FlowJo software, and EC50 value was calculated using a sigma plot program. […]
For orientation: In flow cytometry, cells or beads pass a laser one at a time.

B1: WM-A1-3389 antibody (antibody, human IgG1, kappa, V domains shown)
VH: QVQLVQSGAEVKRPGSSVKVSCKASGGTFSTYAISWVRQAPGQGLEWMGRIIPFVGTVDYAQKFQDRVTITADKSTNTAYMELSSLRSEDTAVYYCVRDGGRSYFDSWGPGILVTVSS
VL: QFVLTQPPSVSAAPGQDVIISCSGNTSNIGSNLVSWFQQFPETAPKLLIYDNHKRPSGISDRFSGTKSGTSASLAISGLQSEDEADYYCVAWDDSLNGYVFGTGTKVTVLR
notes: Human antibody from a phage library, converted to whole IgG; also called anti-IGSF1 antibody
On to B1, for which the concentration for a half-maximal effect (EC50) (usually the concentration giving half of the maximal effect) was roughly 69 nM.
